PMC2621353, “Residues Clustered in the Light-Sensing Knot of Phytochrome B are Necessary for Conformer-Specific Binding to Signaling Partner PIF3” (PLoS Genetics, 2009)

B1: full-length phytochrome B (phyB), wild type, in vitro translated [modified: 35S-methionine labelled; 35S-methionine labelled] [Arabidopsis thaliana] / GAD-PIF3, in vitro translated [modified: 35S-methionine labelled … (parent)
chain 1: MVSGVGGSGGGRGGGRGGEEEPSSSHTPNNRRGGEQAQSSGTKSLRPRSNTESMSKAIQQYTVDARLHAVFEQSGESGKSFDYSQSLKTTTYGSSVPEQQITAYLSRIQRGGYIQPFGCMIAVDESSFRIIGYSENAREMLGIMPQSVPTLEKPEILAMGTDVRSLFTSSSSILLERAFVAREITLLNPVWIHSKNTGKPFYAILHRIDVGVVIDLEPARTEDPALSIAGAVQSQKLAVRAISQLQALPGGDIKLLCDTVVESVRDLTGYDRVMVYKFHEDEHGEVVAESKRDDLEPYIGLHYPATDIPQASRFLFKQNRVRMIVDCNATPVLVVQDDRLTQSMCLVGSTLRAPHGCHSQYMANMGSIASLAMAVIINGNEDDGSNVASGRSSMRLWGLVVCHHTSSRCIPFPLRYACEFLMQAFGLQLNMELQLALQMSEKRVLRTQTLLCDMLLRDSPAGIVTQSPSIMDLVKCDGAAFLYHGKYYPLGVAPSEVQIKDVVEWLLANHADSTGLSTDSLGDAGYPGAAALGDAVCGMAVAYITKRDFLFWFRSHTAKEIKWGGAKHHPEDKDDGQRMHPRSSFQAFLEVVKSRSQPWETAEMDAIHSLQLILRDSFKESEAAMNSKVVDGVVQPCRDMAGEQGIDELGAVAREMVRLIETATVPIFAVDAGGCINGWNAKIAELTGLSVEEAMGKSLVSDLIYKENEATVNKLLSRALRGDEEKNVEVKLKTFSPELQGKAVFVVVNACSSKDYLNNIVGVCFVGQDVTSQKIVMDKFINIQGDYKAIVHSPNPLIPPIFAADENTCCLEWNMAMEKLTGWSRSEVIGKMIVGEVFGSCCMLKGPDALTKFMIVLHNAIGGQDTDKFPFPFFDRNGKFVQALLTANKRVSLEGKVIGAFCFLQIPSPELQQALAVQRRQDTECFTKAKELAYICQVIKNPLSGMRFANSLLEATDLNEDQKQLLETSVSCEKQISRIVGDMDLESIEDGSFVLKREEFFLGSVINAIVSQAMFLLRDRGLQLIRDIPEEIKSIEVFGDQIRIQQLLAEFLLSIIRYAPSQEWVEIHLSQLSKQMADGFAAIRTEFRMACPGEGLPPELVRDMFHSSRWTSPEGLGLSVCRKILKLMNGEVQYIRESERSYFLIILELPVPRKRPLSTASGSGDMMLMMPY
chain 2: MPLFELFRLTKAKLESAQDRNPSPPVDEVVELVWENGQISTQSQSSRSRNIPPPQANSSRAREIGNGSKTTMVDEIPMSVPSLMTGLSQDDDFVPWLNHHPSLDGYCSDFLRDVSSPVTVNEQESDMAVNQTAFPLFQRRKDGNESAPAASSSQYNGFQSHSLYGSDRARDLPSQQTNPDRFTQTQEPLITSNKPSLVNFSHFLRPATFAKTTNNNLHDTKEKSPQSPPNVFQTRVLGAKDSEDKVLNESVASATPKDNQKACLISEDSCRKDQESEKAVVCSSVGSGNSLDGPSESPSLSLKRKHSNIQDIDCHSEDVEEESGDGRKEAGPSRTGLGSKRSRSAEVHNLSERRRRDRINEKMRALQELIPNCNKVDKASMLDEAIEYLKSLQLQVQIMSMASGYYLPPAVMFPPGMGHYPAAAAAMAMGMGMPYAMGLPDLSRGGSSVNHGPQFQVSGMQQQPVAMGIPRVSGGGIFAGSSTIGNGSTRDLSGSKDQTTTNNNSNLKPIKRKQGSSDQFCGSS

Variants of: B1
Assay: in vitro co-immunoprecipitation
Details: with GAD-PIF3, in vitro translated [modified: 35S-methionine labelled, GAD-PIF3 as bait, phyB as prey, 35S-met in vitro translated proteins
[1] = phyB in Pfr form, parent: 13, read off a plot
[2] = phyB in Pr form, parent: 1, read off a plot
[3] = phyB in Pfr form, parent: 17, read off a plot
[4] = phyB in Pfr form, parent: 3.8, read off a plot
[5] = phyB in Pfr form, parent: 9.1, read off a plot

**Q.** What does the source list for chain 1 G348D?
**A.** screen value (relative to wild-type phyB Pr = 1) [1]: 2.6; screen value (relative to wild-type phyB Pr = 1) [2]: 1

**Q.** chain 1 C345R was tested. Which screen value (relative to wild-type phyB Pr = 1) [3] did it give?
**A.** 5.1

**Q.** And the screen value (relative to wild-type phyB Pr = 1) [2]?
**A.** 2

**Q.** What does the source list for chain 1 R415W?
**A.** screen value (relative to wild-type phyB Pr = 1) [4]: 0.58; screen value (relative to wild-type phyB Pr = 1) [2]: 0.45

**Q.** Which results are given for chain 1 S367P?
**A.** screen value (relative to wild-type phyB Pr = 1) [3]: 4.8; screen value (relative to wild-type phyB Pr = 1) [2]: 2.4

**Q.** For chain 1 C119Y, which screen value (relative to wild-type phyB Pr = 1) [4] is on record?
**A.** 0.9

**Q.** And the screen value (relative to wild-type phyB Pr = 1) [2]?
**A.** 0.45

**Q.** chain 1 V273L was tested. Which screen value (relative to wild-type phyB Pr = 1) [3] did it give?
**A.** 3.9

**Q.** And the screen value (relative to wild-type phyB Pr = 1) [2]?
**A.** 2

**Q.** What does the source list for chain 1 P411L?
**A.** screen value (relative to wild-type phyB Pr = 1) [5]: 4.1; screen value (relative to wild-type phyB Pr = 1) [2]: 1

**Q.** How did the screen value (relative to wild-type phyB Pr = 1) [3] turn out when chain 1 I308T was run?
**A.** 2.3

**Q.** And the screen value (relative to wild-type phyB Pr = 1) [2]?
**A.** 1

**Q.** How did the screen value (relative to wild-type phyB Pr = 1) [1] turn out when chain 1 V264E was run?
**A.** 1.9

**Q.** And the screen value (relative to wild-type phyB Pr = 1) [2]?
**A.** 2

**Q.** Which screen value (relative to wild-type phyB Pr = 1) [1] does the source give for chain 1 L256C here?
**A.** 2.8

**Q.** And the screen value (relative to wild-type phyB Pr = 1) [2]?
**A.** 1

**Q.** For chain 1 S343Y, which screen value (relative to wild-type phyB Pr = 1) [1] is on record?
**A.** 1.7

**Q.** What about the screen value (relative to wild-type phyB Pr = 1) [2] of the same variant?
**A.** 1.4

**Q.** How did the screen value (relative to wild-type phyB Pr = 1) [5] turn out when chain 1 S134G was run?
**A.** 3.1

**Q.** And the screen value (relative to wild-type phyB Pr = 1) [2]?
**A.** 1.6
